Results from patent publication US20240117043A1 (SHANGHAI JUNSHI BIOSCIENCES, published 2024).

How the values were obtained:
[1] = molecular target: T1, recombinant human TIGIT (His Tag) (human, UniProt Q495A1 22-141); assay: ELISA, relative binding activity, sample kept at 40 C for 2 weeks
T1 construct: Coated antigen of the ELISA; not shown: His tag
T1 sequence (looked up): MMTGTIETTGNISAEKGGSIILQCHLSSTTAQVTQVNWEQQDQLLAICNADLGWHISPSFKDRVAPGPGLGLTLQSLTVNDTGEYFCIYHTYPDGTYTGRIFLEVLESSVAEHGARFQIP
Method: (§1) The antibody samples were exchanged into a pH 5.5 buffer system (20 mM histidine-histidine hydrochloride buffer, 230 mM trehalose) with the concentration of the samples controlled at about 5 mg/mL, and the buffer was aliquoted into vials at 500 μL/vial. The vials were placed in a 40° C. incubator to test stability at 0 W, 2 W and 4 W. Samples were sent for analysis according to Table 2. Stability was assessed by the following parameters: (a) the content of antibody monomers, aggregates or fragments determined by SEC-HPLC (size exclusion chromatography); (b) the molecular weight of the antibody determined by CE-SDS (sodium dodecyl sulfate capillary electrophoresis); and (c) the bioactivity of the antibody determined by an ELISA or reporter gene assay.

[2] = molecular target: T2, recombinant human HX1 hCD112R Fc (human, UniProt Q6DKI7 41-171, limits assumed); assay: as above
T2 construct: Coated antigen of the ELISA (Suzhou Junmeng); also called human CD112R; not shown: Fc part
T2 sequence (looked up): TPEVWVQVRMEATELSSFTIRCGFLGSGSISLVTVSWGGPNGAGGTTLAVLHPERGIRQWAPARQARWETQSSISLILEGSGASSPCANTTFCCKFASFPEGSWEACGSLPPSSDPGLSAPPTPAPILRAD
Method: as §1

[3] = molecular target: T3, human TIGIT on the surface of Jurkat-hTIGIT cells (human, UniProt Q495A1 22-244); assay: flow cytometry, blocking of 1 ug/mL PVR-mFc binding to Jurkat-hTIGIT cells
T3 construct: whole, on cells; also called human TIGIT on the surface of Jurkat cells
T3 sequence (looked up): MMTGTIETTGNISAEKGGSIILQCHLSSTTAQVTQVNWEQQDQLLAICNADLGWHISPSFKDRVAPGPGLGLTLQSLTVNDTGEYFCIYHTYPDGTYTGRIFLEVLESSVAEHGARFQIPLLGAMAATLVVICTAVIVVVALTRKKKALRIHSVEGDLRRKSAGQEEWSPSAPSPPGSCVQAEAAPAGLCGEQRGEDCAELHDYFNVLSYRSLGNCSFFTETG
Method: Jurkat-hTIGIT cells (human T lymphocytes, human TIGIT positive) were incubated with different concentrations of the bispecific antibodies JS-1, JS-3, JS-5 and JS-9 and 1 μg/mL human PVR-mFc protein at 4° C. for 30 min, then washed and incubated with a fluorescence-labeled anti-mouse IgG secondary antibody (1:200) in a dark place at 4° C. for 30 min. Finally, the cells were collected using a flow cytometer (BD Canto II), and the fluorescent antibodies bound to the cell surface were detected. Raw data were analyzed using FlowJo to obtain MFI values, antibody dose-dependent binding curves (FIG. 4) were fitted using GraphPad, and IC50 was calculated. The positive controls were hu20 (a recombinant humanized anti-TIGIT monoclonal antibody) and JS-Ref (Hengrui) (an anti-TIGIT/CD112R bispecific antibody of Hengrui, expressed and purified according to the sequence of the patent WO2021180205), and the negative control was an anti-KLH-hIgG4 antibody.

| TIGIT binding activity Elisa (%) [1] [%] | CD112R binding activity Elisa (%) [2] [%] | IC50 [3] [nM] | Binder |
| --- | --- | --- | --- |
| 75 | 87 | 5.42 | bispecific antibody JS-1 (IgG4) (bispecific antibody, Three-chain knob-into-hole format: anti-TIGIT Fab arm and anti-CD112R scFv arm, IgG4 Fc) heavy: QVQLVQSGAEVKKPGASVKVSCKTSGYAFTEYTMHWVRQAPGKGLEWMGGINPNTGGTTYNQKFQGRVTLTVDKSSSTAYMELSSLRSEDTVVYYCAKLLRLMYYFDYWGQGTLVTVSSASTKGPSVFPLAPCSRSTSESTAALGCLVKDYFPEPVTVSWNSGALTSGVHTFPAVLQSSGLYSLSSVVTVPSSSLGTKTYTCNVDHKPSNTKVDKRVESKYGPPCPPCPAPEFLGGPSVFLFPPKPKDTLMISRTPEVTCVVVDVSQEDPEVQFNWYVDGVEVHNAKTKPREEQFNSTYRVVSVLTVLHQDWLNGKEYKCKVSNKGLPSSIEKTISKAKGQPREPQVYTLPPCQEEMTKNQVSLWCLVKGFYPSDIAVEWESNGQPENNYKTTPPVLDSDGSFFLYSRLTVDKSRWQEGNVFSCSVMHEALHNHYTQKSLSLSLGK light: not shown DIVMTQSPDSLAVSLGERATINCKASQSVSNDVAWYQQKPGQPPKLLIYYVSHRFTGVPDRFSGSGSGTDFTLTISSLQAEDVAVYFCHQAYRSPWTFGCGTKLEIKGGGGSGGGGSGGGGSGGGGSEVQLVESGGGLVKPGGSLRLSCAASGFTFSSYHMSWVRQAPGKCLELVSAINSNGINTYYLDTVKGRFTISRDNAKNSLYLQMNSLRAEDTAVYYCARHEDYYGFAMDYWGQGTLVTVSSGGGGSGGGGSESKYGPPCPPCPAPEFLGGPSVFLFPPKPKDTLMISRTPEVTCVVVDVSQEDPEVQFNWYVDGVEVHNAKTKPREEQFNSTYRVVSVLTVLHQDWLNGKEYKCKVSNKGLPSSIEKTISKAKGQPREPQVCTLPPSQEEMTKNQVSLSCAVKGFYPSDIAVEWESNGQPENNYKTTPPVLDSDGSFFLVSRLTVDKSRWQEGNVFSCSVMHEALHNRFTQKSLSLSLGK |
| 88 | 98 | 6.78 | bispecific antibody JS-3 (IgG4) (bispecific antibody, Two-chain scFab/scFab knob-into-hole format, IgG4 Fc) chain 1: not shown chain 2: DIVMTQSPDSLAVSLGERATINCKASQSVSNDVAWYQQKPGQPPKLLIYYVSHRFTGVPDRFSGSGSGTDFTLTISSLQAEDVAVYFCHQAYRSPWTFGQGTKLEIKRTVAAPSVFIFPPSDEQLKSGTASVVCLLNNFYPREAKVQWKVDNALQSGNSQESVTEQDSKDSTYSLSSTLTLSKADYEKHKVYACEVTHQGLSSPVTKSFNRGECSGGGSGGGSEGGGSEGGGSEGGGSEGGGSGGGSGEVQLVESGGGLVKPGGSLRLSCAASGFTFSSYHMSWVRQAPGKGLELVSAINSNGINTYYLDTVKGRFTISRDNAKNSLYLQMNSLRAEDTAVYYCARHEDYYGFAMDYWGQGTLVTVSSASTKGPSVFPLAPCSRSTSESTAALGCLVKDYFPEPVTVSWNSGALTSGVHTFPAVLQSSGLYSLSSVVTVPSSSLGTKTYTCNVDHKPSNTKVDKRVESKYGPPCPPCPAPEFLGGPSVFLFPPKPKDTLMISRTPEVTCVVVDVSQEDPEVQFNWYVDGVEVHNAKTKPREEQFNSTYRVVSVLTVLHQDWLNGKEYKCKVSNKGLPSSIEKTISKAKGQPREPQVCTLPPSQEEMTKNQVSLSCAVKGFYPSDIAVEWESNGQPENNYKTTPPVLDSDGSFFLVSRLTVDKSRWQEGNVFSCSVMHEALHNRFTQKSLSLSLGK |
